Substitutions are numbered along the chain they refer to. Numbers in names are those of the source.
T1: GkDnaC replicative helicase WT (Geobacillus kaustophilus HTA426, UniProt Q5KU75 1-454)
T1 sequence: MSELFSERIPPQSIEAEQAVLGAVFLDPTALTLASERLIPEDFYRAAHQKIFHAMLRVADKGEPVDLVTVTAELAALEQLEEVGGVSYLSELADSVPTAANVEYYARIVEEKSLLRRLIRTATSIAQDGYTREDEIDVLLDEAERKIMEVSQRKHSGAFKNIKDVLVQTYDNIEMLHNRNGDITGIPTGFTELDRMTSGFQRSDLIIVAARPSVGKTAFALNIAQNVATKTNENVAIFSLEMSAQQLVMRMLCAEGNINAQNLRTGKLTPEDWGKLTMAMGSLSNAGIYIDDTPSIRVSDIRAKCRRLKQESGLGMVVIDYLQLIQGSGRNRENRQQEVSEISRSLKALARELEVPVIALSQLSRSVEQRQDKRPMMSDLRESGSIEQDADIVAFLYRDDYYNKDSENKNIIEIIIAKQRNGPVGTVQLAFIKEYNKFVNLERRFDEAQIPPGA

B1: GkDnaC R145K146A double mutant (enzyme, Geobacillus kaustophilus HTA426, UniProt Q5KU75 1-454, looked up)
chain: T1 sequence with R145A, K146A
B2: Geobacillus kaustophilus HTA426 DnaC helicase, wild type (enzyme, UniProt Q5KU75 1-454, looked up)
chain: T1 sequence
B3: GkDnaC R145A (enzyme, Geobacillus kaustophilus HTA426, UniProt Q5KU75 1-454, looked up)
chain: T1 sequence with R145A
B4: GkDnaC R344A (enzyme, Geobacillus kaustophilus HTA426, UniProt Q5KU75 1-454, looked up)
chain: T1 sequence with R344A
B5: GkDnaC K50A (enzyme, Geobacillus kaustophilus HTA426, UniProt Q5KU75 1-454, looked up)
chain: T1 sequence with K50A
B6: GkDnaC R117A (enzyme, Geobacillus kaustophilus HTA426, UniProt Q5KU75 1-454, looked up)
chain: T1 sequence with R117A
B7: GkDnaC R332A (enzyme, Geobacillus kaustophilus HTA426, UniProt Q5KU75 1-454, looked up)
chain: T1 sequence with R332A
B8: GkDnaC R120A (enzyme, Geobacillus kaustophilus HTA426, UniProt Q5KU75 1-454, looked up)
chain: T1 sequence with R120A
B9: GkDnaC R330A (enzyme, Geobacillus kaustophilus HTA426, UniProt Q5KU75 1-454, looked up)
chain: T1 sequence with R330A

What was measured:
[1] = target: the molecule itself; assay: SEC
[2] = target: the molecule itself; assay: crystal structure
[3] = target: T1, GkDnaC replicative helicase WT; assay: X-ray crystal structure

Row | Binder | stoichiometry N [1] | also measured
1 | B1 | 6 | –
2 | B2 | – | stoichiometry N [2]: 6
3 | B3 | 6 | –
4 | B4 | 6 | –
5 | B5 | 6 | –
6 | B6 | 6 | –
7 | B7 | 6 | –
8 | B8 | 6 | –
9 | B9 | 6 | –
10 | TTTTTTTTTTTTTTT (ssDNA) [(dT)15] | – | binding result [3]: binds
